From US20110110861A1 (WALTER AND ELIZA HALL INSTITUTE OF MEDICAL RESEARCH, published 2011) come the findings set out here.

In test [1] the target is T1, human 5B6, full length, membrane bound on cells (human, UniProt Q6UXN8 1-241).
T1 construct: also called h5B6; hCLEC9A
The experiment in a line: flow cytometry on live 293T cells transiently transfected with full length untagged h5B6. On the procedure:
(§1) To identify binding partners for the 5B6 molecule, the inventors generated the soluble FLAG-tagged m5B6 and h5B6, and a control soluble FLAG-tagged C-type lectin Cire. […] Thus, soluble 5B6 can interact with membrane bound 5B6 in a cross-species manner.
(§2) Binding assays were performed in binding buffer (PBS containing 0.2% BSA/and 0.02% sodium azide), on ice. Cells were washed 3 times with PBS to remove serum proteins, then resuspended in binding buffer. Cells were incubated with either (1) biotinylated soluble Clec9A and controls, and detected with SA-PE, or (2) soluble FLAG-tagged Clec9A, biotinylated anti-FLAG mAb 9H10, then detected with SA-PE. Live cells were gated on forward and side scatter, or by propidium iodide (PI) exclusion, whereas dead cells were gated on forward and side scatter, or by PI inclusion. Analysis of soluble Clec9A binding was performed by flow cytometry using a FACScan (Becton Dickinson).
(In general: A flow cytometer gives signals particle by particle.)

In test [2] the target is T2, mouse 5B6, full length, membrane bound on cells (mouse).
T2 construct: also called m5B6; mClec9A
T2 chain: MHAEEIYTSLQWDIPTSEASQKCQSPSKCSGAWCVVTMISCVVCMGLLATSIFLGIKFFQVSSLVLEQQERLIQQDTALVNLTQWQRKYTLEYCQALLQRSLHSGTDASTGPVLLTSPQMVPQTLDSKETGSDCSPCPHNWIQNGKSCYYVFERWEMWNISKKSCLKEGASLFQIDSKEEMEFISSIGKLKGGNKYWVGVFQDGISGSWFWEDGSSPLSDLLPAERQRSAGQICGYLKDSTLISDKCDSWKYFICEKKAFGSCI
The experiment in a line: flow cytometry on live 293T cells transiently transfected with full length untagged m5B6. The method, then:
as §1, §2

T1 sequence (Q6UXN8 whole entry): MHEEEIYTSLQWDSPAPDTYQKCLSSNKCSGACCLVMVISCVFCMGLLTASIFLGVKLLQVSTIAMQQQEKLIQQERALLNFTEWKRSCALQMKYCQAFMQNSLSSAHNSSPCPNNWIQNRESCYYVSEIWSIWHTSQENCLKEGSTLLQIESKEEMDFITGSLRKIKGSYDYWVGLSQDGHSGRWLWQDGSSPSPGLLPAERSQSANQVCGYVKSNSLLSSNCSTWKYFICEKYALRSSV

B1: soluble FLAG-tagged mouse 5B6 (full ectodomain: stalk/hinge and CTLD) (receptor)
chain: ASISARQNSGLHHILDAQKMVWNHRGARQDYKDDDDKTREQQERLIQQDTALVNLTQWQRKYTLEYCQALLQRSLHSGTDASTGPVLLTSPQMVPQTLDSKETGSDCSPCPHNWIQNGKSCYYVFERWEMWNISKKSCLKEGASLFQIDSKEEMEFISSIGKLKGGNKYWVGVFQDGISGSWFWEDGSSPLSDLLPAERQRSAGQICGYLKDSTLISDKCDSWKYFICEKKAFGSCI
notes: also called soluble m5B6; soluble mouse 5B6
With B1, the binding result in test [1] and in test [2] was “binds” throughout.

B2: soluble FLAG-tagged human 5B6 (full ectodomain: stalk/hinge and CTLD) (receptor)
chain: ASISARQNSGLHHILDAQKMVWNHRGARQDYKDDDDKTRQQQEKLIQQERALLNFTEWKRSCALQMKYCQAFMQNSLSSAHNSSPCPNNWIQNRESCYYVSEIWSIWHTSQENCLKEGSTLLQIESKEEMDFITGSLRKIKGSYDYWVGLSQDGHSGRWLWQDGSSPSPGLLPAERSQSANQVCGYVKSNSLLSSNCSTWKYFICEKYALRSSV
notes: Built like m1; also called soluble h5B6; soluble human 5B6
As to B2, the binding result in test [1] and in test [2] was “binds” in each case.
